Here are results for 3 molecules from patent publication US20190153112A1 (IMMUTEP S A S, published 2019).

In experiment [1] the target is human LAG-3 protein (Lymphocyte activation gene-3) on the cell surface (human) (UniProt P18627). As to the kind of experiment: flow cytometry on CHO-LAG-3+ cells; antibody 20 ng/ml. Background: A flow cytometer gives signals particle by particle.
For experiment [2] the target is unchanged. Put plainly: flow cytometry on CHO-LAG-3+ cells; antibody 192 ng/ml.
Experiment [3] shares this target. Put plainly: flow cytometry on CHO-LAG-3+ cells; antibody 6 ng/ml.
For experiment [4] the target is unchanged. Put plainly: flow cytometry on CHO-LAG-3+ cells; antibody 1905 ng/ml.
Experiment [5] has the same target. Put plainly: flow cytometry on CHO-LAG-3+ cells; antibody 61 ng/ml.
Experiment [6] has the same target. Put plainly: flow cytometry on CHO-LAG-3+ cells; antibody 6000 ng/ml.
For experiment [7] the target is unchanged. Put plainly: flow cytometry on CHO-LAG-3+ cells; antibody 605 ng/ml.
For experiment [8] the target is unchanged. As to the kind of experiment: flow cytometry on CHO-LAG-3+ cells; antibody 0 ng/ml (no-antibody background).
In experiment [9] the target is T1, human LAG-3 protein (Lymphocyte activation gene-3) on the cell surface (human, UniProt P18627 23-525).
T1 construct: also called CD223; CHO LAG-3+
T1 sequence: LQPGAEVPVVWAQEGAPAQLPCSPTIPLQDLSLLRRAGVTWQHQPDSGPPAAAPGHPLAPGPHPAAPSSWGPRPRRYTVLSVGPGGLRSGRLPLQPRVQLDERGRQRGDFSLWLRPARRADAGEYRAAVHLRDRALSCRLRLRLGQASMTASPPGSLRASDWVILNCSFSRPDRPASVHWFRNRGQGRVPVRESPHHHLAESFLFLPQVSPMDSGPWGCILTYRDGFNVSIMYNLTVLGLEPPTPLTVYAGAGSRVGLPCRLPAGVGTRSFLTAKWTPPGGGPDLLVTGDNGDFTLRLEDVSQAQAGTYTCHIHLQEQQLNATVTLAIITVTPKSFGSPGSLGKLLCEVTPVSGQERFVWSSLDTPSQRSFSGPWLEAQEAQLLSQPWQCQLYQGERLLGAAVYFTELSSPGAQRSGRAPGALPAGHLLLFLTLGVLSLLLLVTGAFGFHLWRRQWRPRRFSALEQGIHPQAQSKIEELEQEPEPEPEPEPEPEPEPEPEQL
Put plainly: flow cytometry on CD8+ cells of SEB-stimulated PBMCs, mean of three donors. How it is done:
(§1) LAG-3⁺-transfected CHO cells, or SEB-stimulated PBMCs from a healthy donor were incubated with anti-LAG-3 monoclonal antibody, or an isotype control (mIgG1) for 30 minutes in PBS, BSA 0.5%, Azide 0.1% at 4° C. […] The secondary antibody was washed away, and the CHO cells were directly analyzed by flow cytometry. The PBMCs were phenotyped using CD4-PE-Cy7 and CD8-APC-Cy7.

The target in experiment [10] is T1, human LAG-3 protein (Lymphocyte …). Put plainly: flow cytometry on CD8+ cells of SEB-stimulated PBMCs (Donor 1), from Table 13. The method, then:
as §1

Experiment [11] shares this target. As to the kind of experiment: flow cytometry on CD4+ cells of SEB-stimulated PBMCs, three donors; reference 17B4. The method, then: as §1
The target is the same in experiment [12]. As to the kind of experiment: flow cytometry on CD8+ cells of SEB-stimulated PBMCs, three donors; reference 17B4. The method, then: as §1
For experiment [13] the target is unchanged. Put plainly: flow cytometry on CD4+ cells of SEB-stimulated PBMCs, mean of three donors. The method, then: as §1
The target is the same in experiment [14]. As to the kind of experiment: flow cytometry on LAG-3-expressing CHO cells, four independent experiments; reference 17B4. How it is done: as §1
The target is the same in experiment [15]. Put plainly: flow cytometry on CD4+ cells of SEB-stimulated PBMCs (Donor 1), from Table 13. How it is done: as §1
The target of experiment [16] is T2, IMP321 (recombinant soluble human LAG-3Ig fusion protein) (human, UniProt P18627 23-450).
T2 sequence (looked up): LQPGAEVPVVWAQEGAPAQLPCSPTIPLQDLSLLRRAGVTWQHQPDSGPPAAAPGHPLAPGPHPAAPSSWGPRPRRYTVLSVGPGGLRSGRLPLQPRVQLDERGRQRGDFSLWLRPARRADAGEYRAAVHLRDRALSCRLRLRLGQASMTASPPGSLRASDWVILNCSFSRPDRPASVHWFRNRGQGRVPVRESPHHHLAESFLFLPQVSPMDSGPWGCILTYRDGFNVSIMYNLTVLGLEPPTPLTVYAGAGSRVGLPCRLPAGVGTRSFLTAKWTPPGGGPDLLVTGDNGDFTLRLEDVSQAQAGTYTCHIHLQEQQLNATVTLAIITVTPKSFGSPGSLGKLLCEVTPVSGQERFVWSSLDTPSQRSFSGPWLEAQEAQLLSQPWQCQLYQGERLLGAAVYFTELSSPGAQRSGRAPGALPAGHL
As to the kind of experiment: cell-based or functional assay.

For the molecule “human IgG4 (isotype-matched negative control) (antibody)”, the MFI FITC in [1] is 49 MFI; in experiment [2] it was 59 MFI; in experiment [3] it was 37 MFI; in [4], 77 MFI; in experiment [5], 69 MFI; in [6], 71 MFI. Moreover, the MFI FITC in experiment [7] was found to be 46 MFI; in experiment [8], 35 MFI.

B1: mouse monoclonal anti-LAG-3 antibody 13E2 (antibody, V domains shown)
VH: QVTLKESGPGILQPSQTLSLTCSFSGFSLSTSGMGLGWIRQPSGKGLEWLTHIWWDDIKRYNPDLRSRLTISKDTSSSQIFLKIASVDTADTATYYCARIVEGSYSSSYFDVWGAGTTVTVSS
VL: DIVMTQPHKFMSTSVEDRVTITCKASQDVIFDVAWYQQKPGQSPKLLIYSASSRVSGVPDRFTGSGSGTDFTFTISSVQAEDLAVYYCQQHYSTPYTFGGGTTLEIK
notes: Whole mouse monoclonal antibody from a hybridoma; mIgG1 was used as its isotype control
A word on the EC50: it is the concentration giving half of the maximal effect. Higher therefore signals a need for much substance. Turning to B1, the EC50 in [9] was found to be 0.4 nM; in [10], 0.3 nM; in experiment [13], 0.2 nM; in [15] it was 0.1 nM. In addition, the “ratio of mean EC50 against 17B4” value is 3.8 times in experiment [11], 2.5 times in [12] and 2.7 times in experiment [14].

B2: mouse monoclonal anti-LAG-3 antibody 34F4 (antibody, V domains shown)
VH: QVTLKESGPGILQPSQTLSLTCSFSGFSLNTSGMGVGWIRQPSGKGLEWLTHIWWDDVKRYNPALKSRLTISKDTSSSQVFLKIASVDTADTATYYCARIEGDTYYDYYFDYWGQGVTLTVSS
VL: DIVMTQSHKLMSTSVGDGLSITCKASQDVSIAVVWYQQKPGQSPKLLIYSASFRYTGVPDRFTGSGSGTDFTFTISSVQAEDLAVYYCQQHYSIPWTFGGGTKLEIK
notes: as for B1
For the molecule B2, the concentration for a half-maximal effect (EC50) was found to be 0.5 nM in experiment [9], 0.2 nM in experiment [13] and 0.1 nM in experiment [15]. Moreover, the “ratio of mean EC50 against 17B4” value in [11] is 3.8 times; in [12], 2.5 times; in [14] it was 1.6 times. Also, the “percentage of inhibition of CD8+ T cell proliferation; Donor #1, 34F4 1000 ng/ml neutralised with a 10-fold excess of IMP321” value in experiment [16] is 0%. For the same molecule, the “percentage of inhibition of CD8+ T cell proliferation; Donor #2, 34F4 1000 ng/ml neutralised with a 10-fold excess of IMP321” value in experiment [16] came to 41%.
